Patent publication US20130171153A1 (TRANSBIO, published 2013)

B1: antibody produced by the hybridoma designated CRCBT-02-001 (ATCC PTA-10685) (antibody, V domains shown)
VH: FGGGLVQPGGSMKLSCVASGFTFSYYWMNWVRQSPEQGLEWIAEIRLQSNDYPTHYAESVKGRFTISRDDSKNSVYLQMNNLRPEDTGIYYCACRYADYFDHWGQGTTLTVSS
VL: VMTQSPAILSVYPGEKVTMTCRASLSVSYMHWCQQKPGSSPKSWIYATSNLASGVPARFSGSGSGTSYSLTISRVEAEDAATYYCQQWSSNPFTFGSGTKLEIKR
notes: constant regions are not; Used as hybridoma supernatant or as Protein G purified antibody; also called CRCBT-002-001; P1G5-P2B3
B2: CRCBT-02-001 Fab (Fab, V domains shown)
VH: B1 VH
VL: B1 VL
notes: also called PI16 Fab; Anti-PI16 Fab fragment

How the values were obtained:
[1] = target: T1, Abnova recombinant PI16 protein (expressed using a wheat germ cell free system) (UniProt Q6UXB8 1-463, limits assumed); assay: slot blot
T1 construct: Bought product; also called Rec. protein Abnova; Abnova recombinant protein
T1 sequence (looked up): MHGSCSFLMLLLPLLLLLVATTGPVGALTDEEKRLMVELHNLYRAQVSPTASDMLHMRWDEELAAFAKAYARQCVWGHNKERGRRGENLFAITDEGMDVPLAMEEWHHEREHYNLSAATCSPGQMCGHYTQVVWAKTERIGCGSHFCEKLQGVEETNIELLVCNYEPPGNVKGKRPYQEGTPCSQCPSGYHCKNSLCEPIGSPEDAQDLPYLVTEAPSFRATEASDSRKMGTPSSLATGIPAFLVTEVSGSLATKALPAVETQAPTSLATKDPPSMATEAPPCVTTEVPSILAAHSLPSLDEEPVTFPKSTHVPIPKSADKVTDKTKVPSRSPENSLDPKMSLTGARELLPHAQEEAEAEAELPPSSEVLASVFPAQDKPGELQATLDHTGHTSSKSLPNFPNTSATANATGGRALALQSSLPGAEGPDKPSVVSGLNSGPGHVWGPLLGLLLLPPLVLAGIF
Experimental: 100 μl of samples (as indicated) were loaded into each slot onto nitrocellulose membrane (Protran; Schleicher & Schuell) under vacuum. After loading, the blot was blocked for 1 hour at RT with 3% skim milk powder (Diploma) in PBS Tween 0.05% (block buffer). The primary Ab (secreted by CRCBT-02-001 or the polyclonal PI16 antibody from Abnova) was diluted in block buffer one in two and incubated on a platform rocker for 1 hour at RT. The blot was washed 3×5 minutes with PBS tween. Biotinylated horse anti mouse (Vector) 1/1000 diluted in block buffer was added and incubated for one hour at RT on rocking platform. The blot was washed 3×5 minutes with PBS tween. A dilution of 1/1000 SA:HRP (GE Healthcare) in block buffer was added and incubated for one hour at RT on rocking platform. The blot was washed 3×5 minutes with PBS tween. An appropriate volume of ECL solutions A and B (enough to cover membrane surface; ECL Advance Western Blotting Kit, GE Healthcare) was added and incubated for one minute with constant shaking. The blot was read immediately in a G:Box (Syngene) upon 15 seconds UV-exposure.
To determine the protein to which the monoclonal antibody binds, slot blots were performed.

[2] = target: T2, fragment of PI16 expressed by phage clone 15 (round 3) (human); assay: phage ELISA of PI16 gene fragment clones
T2 construct: also called R3 15
T2 chain: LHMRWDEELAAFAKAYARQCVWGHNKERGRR

[3] = target: T3, fragment of PI16 expressed by phage clone 12 (round 3) (human); assay: phage ELISA of PI16 gene fragment clones
T3 construct: also called R3 12
T3 chain: LHMRWDEELAAFAKAYARQ

[4] = target: T4, fragment of PI16 expressed by phage clone 7 (round 3) (human); assay: phage ELISA of PI16 gene fragment clones
T4 construct: also called R3 7
T4 chain: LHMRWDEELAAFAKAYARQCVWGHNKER

[5] = target: T5, fragment of PI16 expressed by phage clone 10 (round 3) (human); assay: phage ELISA of PI16 gene fragment clones
T5 construct: also called R3 10
T5 chain: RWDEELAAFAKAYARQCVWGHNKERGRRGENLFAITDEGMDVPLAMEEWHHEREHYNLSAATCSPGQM

[6] = target: T6, fragment of PI16 expressed by phage clone 4 (round 3) (human); assay: phage ELISA of PI16 gene fragment clones
T6 construct: also called R3 4
T6 chain: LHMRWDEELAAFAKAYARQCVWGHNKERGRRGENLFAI

[7] = target: T7, PI16-Fc (extracellular domain of human PI16, aa 28-443, tev-protease cleavage site, C-terminal human Fc) (human, UniProt P01857-1 104-330 = IgG part); assay: SPR (ProteOn XPR36), mAb captured by anti-mouse IgG on GLM chip, PI16-Fc as analyte, Langmuir global fit
T7 construct: domain: Fc; also called recombinant PI16-Fc; native PI16-Fc; not shown: tev-protease cleavage site
Experimental: A proteOn sensor chip (GLM) was activated by flowing a mixture of 0.2 M EDC and 0.05 M sulpho-NHS over the chip ([…] at 30 μL/min for 5 minutes). Rabbit anti-mouse IgG whole molecule (Sigma M-7023) was then coupled to the chip in the vertical orientation by flowing 150 μL of a 50 μg/mL solution in 10 mM acetate buffer (pH 4.5) at 30 μL/min. The remaining coupling sites were then deactivated by flowing 150 μL of 1 M ethanolamine-HCl (pH 8.5) at 30 μL/min. Mouse monoclonal anti PI16 IgG was then allowed to flow over and be captured by the coupled anti-mouse IgG antibody by flowing 150 μL of 100 μg/mL IgG at 25 μL/min over a single channel of the sensor chip in the horizontal direction. […] PBS Tween 20 (0.005%) alone was passed over the remaining channel and served as a reference. Binding sensorgrams were collected and analysed with the ProteOn Manager 2.1×PR36 software using the Langmuir kinetic model to fit the data and determine the affinity constant (KD).
The published method (Nahshol et al., 2008) was used to measure the kinetics of the PI16 mab by anti-mouse capture. This is a relatively mild method coupling method and the association and dissociation curves and affinity measurement was performed with 4 dilutions of the PI16-Fc (FIG. 43 and Table 9). The data fitted well to a Langmuir kinetic model using global fit (all the curves fitted simultaneously).

mouse PI16 = target: T8, mouse PI16 (mouse, UniProt Q9ET66 30-498, limits assumed); assay: not described
T8 construct: also called Mus musculus PI16
T8 sequence: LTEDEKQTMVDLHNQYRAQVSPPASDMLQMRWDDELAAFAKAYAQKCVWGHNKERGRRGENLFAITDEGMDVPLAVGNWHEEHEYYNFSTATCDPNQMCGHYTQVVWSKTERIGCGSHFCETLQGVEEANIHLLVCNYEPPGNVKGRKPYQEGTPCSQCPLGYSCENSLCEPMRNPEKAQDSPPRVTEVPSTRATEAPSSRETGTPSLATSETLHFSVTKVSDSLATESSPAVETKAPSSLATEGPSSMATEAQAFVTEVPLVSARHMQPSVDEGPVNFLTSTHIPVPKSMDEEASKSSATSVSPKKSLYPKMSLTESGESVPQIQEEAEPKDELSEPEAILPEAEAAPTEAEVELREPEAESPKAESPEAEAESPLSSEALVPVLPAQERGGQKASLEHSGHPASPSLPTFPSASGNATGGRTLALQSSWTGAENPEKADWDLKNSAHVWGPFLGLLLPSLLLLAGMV

[8] = target: T7, PI16-Fc (extracellular domain of human …); assay: SPR (ProteOn XPR36), PI16-Fc amine-coupled to GLC chip, Fab as analyte, Langmuir global fit
Experimental: A ProteOn sensor chip (GLC) was activated by flowing a mixture of 0.2 M N-ethyl-N′-(3-dimethylaminopropyl) carbodiimide (EDC) and 0.05 M sulfo-N-hydroxysuccinimide (sulfo-NHS) over the chip (150 μL at 30 μL/min for 5 minutes). Recombinant PI16-Fc was coupled to the chip in the vertical orientation by flowing 150 μL of a 50 μg/mL solution in 10 mM acetate buffer (pH 4.5) at 30 μL/min. The remaining activated carboxyl group were then deactivated by flowing 150 μL of 1 M ethanolamine-HCl (pH 8.5) at 30 μL/min. […] PBS Tween 20 (0.005%) alone was passed over the remaining channel. Binding sensorgrams were collected and analysed with the ProteOn Manager 2.1×PR36 software using the Langmuir kinetic model to fit the data and determine the affinity constant (KD).
This coupling method was performed using various pHs to optimise the coupling of PI16-Fc to the GLC chip. The optimal coupling pH was 4.5. The association and dissociation curves and affinity measurement was performed with 3 dilutions of the PI16 Fab shown in FIG. 42 and Table 8. The data fitted well to a Langmuir kinetic model using global fit (all the curves fitted simultaneously).

T7 sequence (P01857 other isoform, or with tags, fused parts or gaps): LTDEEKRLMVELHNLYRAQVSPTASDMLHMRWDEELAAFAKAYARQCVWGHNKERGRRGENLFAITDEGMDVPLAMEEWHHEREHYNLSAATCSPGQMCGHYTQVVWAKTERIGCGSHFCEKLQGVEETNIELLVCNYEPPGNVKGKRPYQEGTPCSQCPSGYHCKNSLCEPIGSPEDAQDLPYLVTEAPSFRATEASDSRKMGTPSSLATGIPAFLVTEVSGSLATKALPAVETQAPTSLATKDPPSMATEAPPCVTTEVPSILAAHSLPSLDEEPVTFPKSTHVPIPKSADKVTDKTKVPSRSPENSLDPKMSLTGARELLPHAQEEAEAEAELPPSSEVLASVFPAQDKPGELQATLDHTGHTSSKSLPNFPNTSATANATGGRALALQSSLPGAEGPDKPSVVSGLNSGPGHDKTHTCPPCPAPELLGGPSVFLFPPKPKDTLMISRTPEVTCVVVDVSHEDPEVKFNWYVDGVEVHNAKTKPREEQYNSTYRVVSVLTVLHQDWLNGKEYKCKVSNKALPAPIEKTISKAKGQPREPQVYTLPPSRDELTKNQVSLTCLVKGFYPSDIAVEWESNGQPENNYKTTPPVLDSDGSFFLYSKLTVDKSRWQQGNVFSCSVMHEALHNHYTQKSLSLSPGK

Binder	binding result [1]	binding result [2]	binding result [3]	binding result [4]	binding result [5]	binding result [6]	Kd [7] [nM]	koff [7] [s⁻¹]	kon [7] [M⁻¹ s⁻¹]	binding result (mouse PI16)	Kd [8] [nM]	koff [8] [s⁻¹]	kon [8] [M⁻¹ s⁻¹]
B1	no binding	binds	binds	binds	binds	binds	2.56	0.000149	58200	no binding	–	–	–
B2	–	–	–	–	–	–	–	–	–	–	1.25	0.000372	297000
